B1: Twister Ribozyme (parent)
chain: AACACUGCCAAUGCCGGUCCCAAGCCCGGAUAAAAGUGGAGGGGGCGG

The variants in the series derive from B1. The series is described as follows: self-cleavage, relative activity (ratio to wild type); higher = more cleavage; co-transcriptional.
Turning to A2C C8G, the self-cleavage was 0.0519. Regarding G17C C46U, the self-cleavage stood at 0.144. Consider G38A G43A, for which the self-cleavage came to 0.19. For G43U G45C, the self-cleavage was found to be 0.271.

Regarding U12A U31G, the self-cleavage is 0.961. Turning to G36C U37A, the self-cleavage came out at 0.107. Take G36C U37G: the self-cleavage was determined as 0.297.

Turning to A11G C14U, the self-cleavage was determined as 0.943. In the case of C19G C27A, the self-cleavage worked out at 0.0851. For the variant C19G C27G, the self-cleavage turned out to be 0.0733. For the variant A32C G47C, the self-cleavage is 0.556.

With C20A A30C, the self-cleavage is 0.109. The value for C21A A22U was 0.0641; that for C20G A40G was 0.104; that for U18A A40G was 0.0784.

Regarding C3U C26U, the self-cleavage was found to be 0.138. The value for C8U C21G was 0.0658; that for C15U G48C was 1.07.

With C15G A23U, the self-cleavage came to 0.06. The value for G16A G43A was 0.261; that for U31A G41U was 0.55.

For A10G U31G, the self-cleavage was 0.994.

As to A2C A22G, the self-cleavage amounted to 0.0432. The value for C21A A23U was 0.091. The figure for C5U G39C is 0.171. In the case of A2G C25G, the self-cleavage turned out to be 0.0917. The value for G17C U18G was 0.0748; that for U6G U31G was 0.429; that for A1C C25A was 0.148. For A11U C46U, the self-cleavage came out at 0.914. Turning to C19A A22C, the self-cleavage was 0.127. The value for C5A A22C was 0.601; that for C8G G13C was 0.0604; that for C14G G16A was 0.0993. Turning to C5A G48U, the self-cleavage is 0.577.

In the case of A11U A34G, the self-cleavage worked out at 1.07.

Turning to A4G A32C, the self-cleavage stood at 0.719. As to A22U G43A, the self-cleavage amounted to 0.136. With A11U G48C, the self-cleavage was determined as 1.12.

Regarding U12G A33C, the self-cleavage worked out at 0.685. For the variant U37C G47C, the self-cleavage was 0.341. Regarding C8G A22C, the self-cleavage is 0.437. The value for A4U G39A was 0.0691; that for U18C U31A was 0.54; that for U18A G47A was 0.201.

Consider C3A A40C, for which the self-cleavage is 0.0582.

For the variant C9U G13A, the self-cleavage came to 1.03. Consider C8G G28U, for which the self-cleavage came to 0.0873. Consider C15U U31A, for which the self-cleavage stood at 0.785. On to A1C C14U, for which the self-cleavage worked out at 0.19. As for U18G G47U, the self-cleavage worked out at 0.0478. As for G7U A40G, the self-cleavage turned out to be 0.0793. In the case of A10C C21U, the self-cleavage came to 0.122.

G16U G17U: the self-cleavage is 0.231. As for G16U G17A, the self-cleavage came to 0.0957. In the case of C5A G39U, the self-cleavage turned out to be 0.0872. For the variant C5G C27A, the self-cleavage came out at 0.103. The figure for C25U G29C is 0.635; for C14A G24C it is 0.0765; for C15U G43C it is 0.125. The value for A1G C20G was 0.134; that for A23U C26G was 0.101. Consider C25G C27A, for which the self-cleavage is 0.105. As for C26G G28U, the self-cleavage amounted to 0.0926. As for U12G C15U, the self-cleavage was determined as 0.649. Take A1C G39C: the self-cleavage worked out at 0.145.

In the case of A22U U31A, the self-cleavage is 0.521. The value for G29C G44U was 0.777; that for C19U A40G was 0.108.

On to C14G C26A, for which the self-cleavage stood at 0.0764. Consider C3U G39C, for which the self-cleavage amounted to 0.0856. For C20U A22G, the self-cleavage was 0.119. C8A A23C: the self-cleavage was 0.0825. The figure for A4C G13U is 0.072; for G7A C15U it is 0.377; for C15G G29C it is 0.0981.

Regarding C9A G38U, the self-cleavage stood at 0.32.

For the variant A10C G16U, the self-cleavage came to 0.677.

Take A4G G38A: the self-cleavage turned out to be 0.867. In the case of U6C G29C, the self-cleavage was determined as 0.173. Take C19U G45C: the self-cleavage is 0.38. C14A G16C: the self-cleavage was 0.0948. As for G24C A34G, the self-cleavage worked out at 0.103. The value for A10G A33C was 1.03; that for G42C G43A was 0.139; that for A1U U31G was 0.0468.

With C9A G47A, the self-cleavage was 0.336. For G17A A23U, the self-cleavage came out at 0.28. As to A33G G44U, the self-cleavage was determined as 0.86. For U6C A10G, the self-cleavage stood at 0.809. Consider C14A U31A, for which the self-cleavage worked out at 0.796.

Turning to C9G C46U, the self-cleavage was 0.609. Regarding G41U G45A, the self-cleavage came out at 0.596. With C9G A11U, the self-cleavage is 0.985. For the variant A2C A35G, the self-cleavage was 0.0429. C15A G36U: the self-cleavage is 0.142. For G28C G36A, the self-cleavage was 0.292.

In the case of U31A A35G, the self-cleavage worked out at 0.803. As to C8A U31A, the self-cleavage was 0.433. As for C20U G24A, the self-cleavage came to 0.0805. Take U18G G28U: the self-cleavage was 0.089. Turning to A22U A32C, the self-cleavage worked out at 0.859.

As for A11G A30C, the self-cleavage was 0.861. The value for A34U G48U was 0.811. Regarding C15A G28U, the self-cleavage was found to be 0.736. Take C14A: the self-cleavage was determined as 0.923. For A2C A33G, the self-cleavage was 0.107. The value for U31A G38A was 0.509; that for U31A G38C was 0.801; that for C14G A32U was 0.184.

On to U31A A32C, for which the self-cleavage was 1.09. The value for C19G G48U was 0.218.

Take C9G C19G: the self-cleavage turned out to be 0.073.

On to C21G C27A, for which the self-cleavage stood at 0.0855. The figure for A34U G36U is 0.124; for C19U G24U it is 0.0889; for C5A C19G it is 0.0385. On to A4G U18A, for which the self-cleavage was found to be 0.364.

For C8G G43A, the self-cleavage is 0.137. The figure for U18G C26G is 0.0643; for G36C G38A it is 0.459. Regarding G7C G16U, the self-cleavage was 0.0598. For the variant A22G G39A, the self-cleavage was determined as 0.101. The figure for C20U G42U is 0.399; for C8G G44U it is 0.275. Turning to U6C A32C, the self-cleavage is 0.349. In the case of C5A U18G, the self-cleavage came to 0.0654. Consider A2C A23C, for which the self-cleavage amounted to 0.0233.

Consider G39C G45C, for which the self-cleavage came to 0.105. The value for C20A A34C was 0.102; that for G7C U18C was 0.0305. In the case of G17C G39C, the self-cleavage stood at 0.0888. Regarding C5A G17C, the self-cleavage amounted to 0.0425. As to C26G G45C, the self-cleavage was determined as 0.117.

On to U18A G45U, for which the self-cleavage worked out at 0.272. As for G17A G48C, the self-cleavage worked out at 0.724. Turning to C3G U37G, the self-cleavage is 0.478. For the variant G43C G47C, the self-cleavage was determined as 0.159. Regarding G29C G41C, the self-cleavage came to 0.0927. Turning to C26A G43C, the self-cleavage was determined as 0.111. Consider C8G A35C, for which the self-cleavage was 0.478. For the variant C3G U6G, the self-cleavage was 0.015. Turning to G13C G41A, the self-cleavage worked out at 0.0914. Take A11U A35C: the self-cleavage amounted to 0.997.

Consider A11U A35U, for which the self-cleavage stood at 1.12. In the case of G28C G29C, the self-cleavage is 0.865.

Take C15A C46G: the self-cleavage is 0.525.

For C5G U37G, the self-cleavage was determined as 0.519. C25G G43A: the self-cleavage stood at 0.122. The figure for G7C C20A is 0.0744.

U12A A23C: the self-cleavage is 0.394. As to C15G A40U, the self-cleavage is 0.0313. With G16C G44C, the self-cleavage worked out at 0.649. The value for G7A A33U was 0.269. The figure for A4C G48U is 0.232; for G17A A35G it is 0.262; for C8G U18A it is 0.0816.

In the case of A35U G43C, the self-cleavage was found to be 0.208. With A35U G48C, the self-cleavage was found to be 1.07. On to G24C C46A, for which the self-cleavage is 0.109.

As for G47U G48C, the self-cleavage is 1.36. Turning to C5U A33U, the self-cleavage stood at 0.714.

Regarding U12G A22C, the self-cleavage was found to be 1.13.

For the variant A10G, the self-cleavage came to 1.02. A32C G36A: the self-cleavage was 0.473. Regarding A1G U37C, the self-cleavage was 0.192. Turning to U31G G45U, the self-cleavage came to 0.883.

These data come from the RNAGym collection of RNA variant scans (doi:10.7554/elife.80360).
